Experimental data as given in publication PMC3075667.

Assays:
Δ79AAG wild type (human) [1] = molecular target: Δ79AAG wild type (human) (UniProt P29372); test: EMSA
Δ79AAG wild type (human) [2] = molecular target: Δ79AAG wild type (human) (UniProt P29372); test: competition
[3] = 3,N4-ethenocytosine opposite G (G19)

UniProt P29372, sequence (P29372 84-298, stated change not applied): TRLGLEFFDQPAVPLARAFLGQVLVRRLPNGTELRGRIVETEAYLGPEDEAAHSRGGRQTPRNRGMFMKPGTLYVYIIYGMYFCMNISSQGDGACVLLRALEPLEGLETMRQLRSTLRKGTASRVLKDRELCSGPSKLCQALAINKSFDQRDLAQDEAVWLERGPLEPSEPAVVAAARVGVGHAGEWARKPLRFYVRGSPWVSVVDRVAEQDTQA

With ϵA:T 13-mer the Kd (Δ79AAG wild type (human) [1]; 1,N6-ethenoadenine opposite T) was 46 nM and the IC50 (Δ79AAG wild type (human) [2]; 1,N6-ethenoadenine opposite T) was 163 nM.
Substance ϵC:G 13-mer has a Kd (Δ79AAG wild type (human) [1]; [3]) of 21 nM and an IC50 (Δ79AAG wild type (human) [2]; [3]) of 39 nM.
